Results reported in paper doi:10.1101/694695 (bioRxiv, 2019).
Read-outs that look alike come from different tables or passages of the source.

B1: Ec Pch2^EQ (E159Q), purified hexamer (enzyme, E. coli MS115-1, UniProt D7Y2H4 1-311, looked up)
chain: MNVKPSLDELFERRINFPDFEPQERLARLVGLDEHKDRLSKILGLLVNPYGIQEWAKKYHPDARAAVDTVLRRPPLVVLAGDVGSGKTELAETIGDAVARQEDIDITLYPLSLATRGQGRVGEMTQLVSAAFDYTIEAADKLKNTNGKARGAVLLLIDQADALAQSRENAQMHHEDRAGVNAFIRGIDRIANQKLPAAVLMCTNRLKALDPAVQRRAAEILTFSRPNDEQRHYLLHSKLTGLGLNSTAVEELVRLTGPRDPNSPGFTFSDITQRLIPSIILAAYPYNAVSVHSALQVVNKMTPTPAFIDRQ
B2: Ec HORMA (purified, coexpressed with CdnC) (natural protein, E. coli MS115-1, UniProt D7Y2H3 1-172, looked up)
chain: MSSYSYTVAETQTFSVTHARHMAAKVATDLRRMQRFYGYPSDADIEAYEEELVVFLKAGYLGEVSYGFQKNNNWIEPTLRYTAGDLLGSGTDDDPGKIRPGKDVSGASFYSFMTYSSKYLNATQSEKDTALKDLPFKRVGAQSPGINGYLENDKTYSAGGRSLTRTSVRNFV

Tests used:
[1] = molecular target: Pa CdnD (purified, in complexes with HORMA proteins) (P. aeruginosa ATCC27853) (UniProt P0DTF7); assay: SEC-MALS
[2] = molecular target: Pa HORMA2, untagged, coexpressed (P. aeruginosa ATCC27853); assay: SEC-MALS
[3] = molecular target: Rhizobiales sp. Pch2 (Rhizobiales sp.); assay: crystal structure
[4] = molecular target: T1, Ec CdnC:HORMA complex (purified) (E. coli MS115-1, UniProt D7Y2H2 1-321; D7Y2H3 1-172); assay: SEC-MALS
T1 sequence (looked up) 1: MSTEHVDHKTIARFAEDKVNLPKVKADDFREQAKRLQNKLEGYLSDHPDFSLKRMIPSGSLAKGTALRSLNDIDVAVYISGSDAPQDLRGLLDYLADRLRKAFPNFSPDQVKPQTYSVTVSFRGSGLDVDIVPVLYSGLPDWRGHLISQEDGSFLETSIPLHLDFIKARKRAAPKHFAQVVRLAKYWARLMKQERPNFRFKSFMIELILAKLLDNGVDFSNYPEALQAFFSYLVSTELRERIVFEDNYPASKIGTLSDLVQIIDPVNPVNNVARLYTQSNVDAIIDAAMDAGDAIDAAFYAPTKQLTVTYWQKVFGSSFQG
T1 sequence (looked up) 2: B2 chain

SEC-MALS = molecular target: the molecule itself; assay: SEC-MALS
[5] = molecular target: T2, Ec CdnC (purified, coexpressed with His6-HORMA) (E. coli MS115-1, UniProt D7Y2H2 1-321); assay: SEC-MALS
T2 sequence (looked up): T1 sequence (looked up) 1

[6] = molecular target: B1; assay: crystal structure

Chain of Pa CdnD (purified, in complexes with HORMA proteins) (P. aeruginosa ATCC27853) (P0DTF7 whole entry, one chain of several): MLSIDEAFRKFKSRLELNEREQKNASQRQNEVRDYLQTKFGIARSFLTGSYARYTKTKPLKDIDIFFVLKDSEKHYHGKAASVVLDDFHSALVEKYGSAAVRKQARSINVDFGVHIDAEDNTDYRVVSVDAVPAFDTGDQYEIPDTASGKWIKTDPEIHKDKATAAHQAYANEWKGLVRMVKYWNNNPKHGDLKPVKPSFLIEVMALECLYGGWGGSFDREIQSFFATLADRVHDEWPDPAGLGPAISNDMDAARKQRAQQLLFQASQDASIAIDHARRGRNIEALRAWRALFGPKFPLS
Chain of Pa HORMA2, untagged, coexpressed (P. aeruginosa ATCC27853) (P0DTF6 whole entry): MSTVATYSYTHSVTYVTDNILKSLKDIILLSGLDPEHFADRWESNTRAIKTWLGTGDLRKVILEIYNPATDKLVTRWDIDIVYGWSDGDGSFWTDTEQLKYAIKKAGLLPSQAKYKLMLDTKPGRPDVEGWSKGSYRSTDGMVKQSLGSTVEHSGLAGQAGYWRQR

## Pa HORMA1 (purified, SEC-MALS samples) (natural protein)
[1]; scale: CdnD per HORMA1 in the 2:1:1 CdnD:HORMA1:HORMA2 complex
  stoichiometry N: 2
[2]
  stoichiometry N (HORMA1:HORMA2): 1
[2]; scale: HORMA1 per HORMA2 in the 2:1:1 CdnD:HORMA1:HORMA2 complex
  stoichiometry N: 1

## Rhizobiales sp. Pch2 (enzyme)
[3]
  stoichiometry N: 6

## Pa HORMA2, untagged, coexpressed (natural protein)
[1]
  stoichiometry N: 1 CdnD:HORMA2
[1]; scale: CdnD per HORMA2 in the 2:1:1 CdnD:HORMA1:HORMA2 complex
  stoichiometry N: 2

## B1
[4]
  stoichiometry N: 6 Pch2^EQ chains per CdnC:HORMA
SEC-MALS
  stoichiometry N: 6

## B2
[5]
  stoichiometry N: 1 CdnC:HORMA
[6]
  binding result: binds
